From patent US20090221985A1, “SYSTEM FOR IONTOPHORETIC TRANSDERMAL DELIVERY OF POLYMERIC AGENTS AND METHODS OF USE THEREOF” (priority 2005, published 2009)

Key:
Format in all cases: in vitro ADME
[1] = Iontophoretic delivery of collagen through pig ear skin treated by chemical microporation, Bradford assay; conditions: Silver Nitrite microporated skin, 15V, 1 h
Protocol: (§1) Collagen (100 mg/ml; Sigma) was dissolved in 10 mM sodium phosphate pH 8 containing 150 mM NaCl or in 10 mM sodium phosphate pH 8 containing 150 mM NaCl to which 10 mM glutamic acid solution was added (0.2 ml of glutamic acid were added to 1 ml of collagen to yield pH 4.0), and the glutamic acid solution was incubated at room temperature for 1 hour. Thus, positively charged collagen was driven into the skin by the positive electrode and negatively charged collagen was driven by the negative electrode. The amount of collagen transmitted through the skin was measured by the Bradford assay (Bradford M. M. Anal Biochem. 72, 248-254, 1976).
Pig ear skin piece was treated by chemical microporation using Silver Nitrite and then iontophoresis of collagen was performed as follows:
Twenty ml reservoir was mounted over the skin piece allowing its wetting (FIG. 5). Iontophoretic transmission experiment using the same solutions as described in Example 1 herein above was performed on each sample. Electrodes were placed in the upper and lower reservoirs. At the end of the experiment the amount of collagen transmitted through the skin was measured by the Bradford assay (Bradford M. M. Anal Biochem. 72, 248-254, 1976). The iontophoresis was performed under the following conditions: 1. Distance between electrodes (upper and lower reservoir)—2 cm;

[2] = Iontophoretic delivery of collagen through intact (untreated) pig ear skin piece, Bradford assay; conditions: untreated 1.5 mm pig ear skin; 15V DC, 0.1 mA, 30 min; collected in 5 min intervals (FIGS. 3 and 4)
Protocol: Measurements were performed on collagen delivery through a 1.5 mm thick pig ear skin. The skin piece was obtained by slicing with scalpel a 1.5 mm thick section of a pig ear and fixed it over a 2 cm diameter laboratory vial. The vial was filled with a 50 ml solution of 0.05% NaCl in water to contact with the skin piece.
The experiment was performed by measuring the amount of collagen transmitted through the skin piece into the vial's solution by iontophoresis.
as §1
The experiments were performed at a 15V DC applied voltage and at a current of 0.1 mA for 30 min.
The amount of collagen collected in 5 min intervals was measured by the Bradford reagent.

[3] = Iontophoretic delivery of hyaluronic acid (with BSA) through pig ear skin treated by chemical microporation; conditions: Silver Nitrite microporated skin, iontophoresis as in Example 1
Protocol: Bovine serum albumin (BSA; Sigma) was dissolved in 10 mM sodium phosphate pH 7.2 containing 0.15 M NaCl to yield BSA concentration of 10 mg/ml. Hyaluronic acid suspension (1 mg; Q-Med) was incubated with 0.1 ml of the BSA solution at 40° C. In addition, 0.1 ml glutamic acid (10 mM) was added to another sample of the hyaluronic acid-BSA solution to yield pH 4.0. Piece of a pig ear skin was exposed to chemical microporation using Silver Nitrite and then iontophoretic delivery of the complex was performed as described in Example 1 herein above.
Hyaluronic acid transmitted through the pig ear was stained by complexation with a copper phtalocyanin dye and measured by the Bradford reagent.

Transmitted amount ([3]; initial amount 0.01 mg) [mg] | Transmitted amount (%) ([3]; initial amount 0.01 mg) | Transmitted amount ([3]; initial amount 0.05 mg) [mg] | Transmitted amount (%) ([3]; initial amount 0.05 mg) | Transmitted amount ([3]; initial amount 0.1 mg) [mg] | Transmitted amount (%) ([3]; initial amount 0.1 mg) | Substance | Transmitted amount ([1]; initial amount 0.1 mg) [mg] | Transmitted amount (%) ([1]; initial amount 0.1 mg) | Transmitted amount ([1]; initial amount 0.5 mg) [mg] | Transmitted amount (%) ([1]; initial amount 0.5 mg) | Transmitted amount ([1]; initial amount 1.0 mg) [mg] | Transmitted amount (%) ([1]; initial amount 1.0 mg) | Transmitted amount ([1]; initial amount 10.0 mg) [mg] | Transmitted amount (%) ([1]; initial amount 10.0 mg) | Transmitted amount ([1]; initial amount 20.0 mg) [mg] | Transmitted amount (%) ([1]; initial amount 20.0 mg) | collagen transmitted through the skin piece by iontophoresis [2]
 |  |  |  |  |  | Collagen | 0.04 | 40 | 0.3 | 60 | 0.48 | 48 | 5.6 | 56 | 11.0 | 55 | iontophoretically transmitted through the piece of pig ear skin
0.007 | 70 | 0.030 | 60 | 0.046 | 46 | Hyaluronic acid |  |  |  |  |  |  |  |  |  |  | 
